Reference: patent publication US20160193316A1 (priority 1994, published 2016)

Experiments:
DRB1*0301 (DR3) = molecular target: T1, DRB1*0301 (DR3) (Homo sapiens, UniProt P01903+P01911, A100K/A102G/A103R/A169T/F55Y/I96L/K41T/L162R/M171V/P40S/Q125H/Q178H/Q39Y/R42S/S66N/T106N/T262R/W38E/Y61H); test: HLA class II peptide binding assay (pH 4.5); conditions: for DR3 binding information: unit not given
T1 construct: endogenous in cells; host or cells: MAT

DRB1*0405 (DR4w15) = molecular target: T2, DRB1*0405 (DR4w15) (Homo sapiens, UniProt P01903+P01911, A100R/A169T/D86S/F76Y/I96L/K127E/L162R/M171V/N62H/P40V/Q125Y/R42H/S133A/S149N/S66Y/V115G/V209L/W38E); test: HLA class II peptide binding assay; conditions: for DR4w15 binding data: Table XIXb
T2 construct: endogenous in cells; host or cells: KT3

DRB1*0101 (DR1) = molecular target: T3, DRB1*0101 (DR1) (Homo sapiens, UniProt P01903+P01911, A100R/D57E/F55L/F60I/F76Y/I96L/L162R/M171V/P40L/Q125E/R42F/V115G/Y59C); test: HLA class II peptide binding assay; conditions: for DR1 binding data: Table XIXb, Malaria Super Motif Peptides With Binding Data
T3 construct: endogenous in cells; host or cells: LG2

DRB1*0401 (DR4w4) = molecular target: T4, DRB1*0401 (DR4w4) (Homo sapiens, UniProt P01903+P01911, A100K/A169T/F76Y/I96L/K127E/L162R/M171V/N62H/P40V/Q125Y/R42H/S133A/S149N/S66Y/V115G/V209L/W38E); test: HLA class II peptide binding assay; conditions: for DR4w4 binding data: Table XIXb
T4 construct: endogenous in cells; host or cells: Preiss

DRB1*1201 (DR5w12) = molecular target: T5, DRB1*1201 (DR5w12) (Homo sapiens, UniProt P01903+P01911, A100R/A169T/D57E/D86V/F55L/H45Y/K41T/L162R/M171V/P40S/Q125H/Q178H/Q39Y/Q99D/R42G/S66L/T262R/V114A/V67L/W38E/Y59H/Y61H/Y89S); test: HLA class II peptide binding assay; conditions: for DR5w12 binding data: Table XIXb
T5 construct: endogenous in cells; host or cells: Herluf

DRB1*1101 (DR5w11) = molecular target: T6, DRB1*1101 (DR5w11) (Homo sapiens, UniProt P01903+P01911, A100R/A169T/A87E/I96F/K41T/L162R/M171V/P40S/Q125H/Q178H/Q39Y/Q99D/R42S/S66Y/T262R/V115G/W38E); test: biochemical; type: binding
T6 construct: endogenous in cells; host or cells: Sweig

DRB5*0101 (DR2w2β2) = molecular target: T7, DRB5*0101 (DR2w2β2) (Homo sapiens, UniProt P01903+Q30154); type: binding
T7 construct: expressed in transfected cells; host or cells: L416.3 (fibroblasts) or GM3107

HLA-A*0301 = molecular target: T8, HLA-A*0301 (Homo sapiens, UniProt P04439); test: HLA class I peptide binding assay; conditions: for A*0301 (binding information): Table XVI, Malaria A3 motif peptides; for A*301 (binding data): Malaria A03 supermotif peptides, binding value, no unit given
T8 construct: endogenous in cells; host or cells: GM3107

DRB1*0701 (DR7) = molecular target: T9, DRB1*0701 (DR7) (Homo sapiens, UniProt P01903+P01911, A100R/A102G/A103Q/D57E/D86V/E43K/F76Y/K127E/L162R/M171V/P40G/Q125H/Q99D/R33Q/R42Y/R54Q/S133A/S66F/T210M/V115G/Y107V/Y59L/Y89S); test: biochemical; type: binding
T9 construct: endogenous in cells; host or cells: Pitout

DRB1*0802 (DR8w2) = molecular target: T10, DRB1*0802 (DR8w2) (Homo sapiens, UniProt P01903+P01911, A100R/A103L/A169T/F76Y/H45Y/I96F/K41T/L162R/M171V/P40S/Q125H/Q178H/Q39Y/Q99D/R218S/R42G/S66Y/V115G/W38E); test: biochemical; type: binding
T10 construct: endogenous in cells; host or cells: OLL

[1] = DR3a motif peptides, exemplary 15-mer containing the core sequence
[2] = HLA-A*0301 binding value, unit not given
[3] = binding value for HLA-A*0301, unit not given
[4] = DR3a motif peptides, unit not given, exemplary 15-mer containing the core sequence
[5] = binding value to HLA-A*0301, unit not given

T6 sequence (P01903 26-254, other chains not shown): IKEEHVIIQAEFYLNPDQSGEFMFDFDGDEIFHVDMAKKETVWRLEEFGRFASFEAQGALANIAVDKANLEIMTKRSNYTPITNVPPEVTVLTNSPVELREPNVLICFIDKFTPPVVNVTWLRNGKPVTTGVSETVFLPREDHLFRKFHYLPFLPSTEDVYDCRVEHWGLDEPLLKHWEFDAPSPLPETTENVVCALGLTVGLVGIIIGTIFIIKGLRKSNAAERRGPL
T3 sequence (P01903 26-254 partner, other chains not shown): as the sequence (P01903 26-254, other chains not shown) above
T4 sequence (P01903 26-254 partner, other chains not shown): as the sequence (P01903 26-254, other chains not shown) above

YAGEPAPFD
DR3 binding information (DRB1*0301 (DR3); [1]): -0.0130

LETVNISDV
DR4w15 binding data (DRB1*0405 (DR4w15)): 0.0016
DR1 binding data (DRB1*0101 (DR1)): 0.0001
DR4w4 binding data (DRB1*0401 (DR4w4)): -0.0007
DR5w12 binding data (DRB1*1201 (DR5w12)): 0.0015
DR5w11 binding data (DRB1*1101 (DR5w11)): -0.0002
DR2w2β2 binding data (DRB5*0101 (DR2w2β2)): -0.0005

VDESEDITK
A*0301 (binding information) (HLA-A*0301; [2]): 0.0002

DDIDEGIEK
A*0301 (binding information) (HLA-A*0301; [3]): 0.0001

VLYNIEKGRH
A*0301 (binding information) (HLA-A*0301; [3]): 0.0029

VWDEWSPCS
DR4w15 binding information (DRB1*0405 (DR4w15); [4]): -0.0009
DR1 binding information (DRB1*0101 (DR1); [4]): 0.0001
DR4w4 binding information (DRB1*0401 (DR4w4); [4]): -0.0009
DR3 binding information (DRB1*0301 (DR3); [1]): -0.0041
DR5w12 binding information (DRB1*1201 (DR5w12); [4]): 0.0001
DR7 binding information (DRB1*0701 (DR7)): -0.0003
DR5w11 binding information (DRB1*1101 (DR5w11)): -0.0002
DR2w2β2 binding information (DRB5*0101 (DR2w2β2)): -0.0005
DR8w2 binding information (DRB1*0802 (DR8w2)): -0.0003

VQYDNFQDE
DR3 binding information (DRB1*0301 (DR3); [1]): -0.0033

VEKTASCGV
DR4w15 binding data (DRB1*0405 (DR4w15)): -0.0009
DR1 binding data (DRB1*0101 (DR1)): 0.0004
DR4w4 binding data (DRB1*0401 (DR4w4)): 0.0021
DR5w12 binding data (DRB1*1201 (DR5w12)): 0.0001
DR7 binding data (DRB1*0701 (DR7)): 0.0095
DR5w11 binding data (DRB1*1101 (DR5w11)): -0.0002
DR2w2β2 binding data (DRB5*0101 (DR2w2β2)): -0.0009
DR8w2 binding data (DRB1*0802 (DR8w2)): 0.0005

FNKESLAEK
DR3 binding information (DRB1*0301 (DR3); [1]): 0.0040

ESLAEKTNIC
A*0301 (binding information) (HLA-A*0301; [3]): 0.0001

FQEYQCYGS
DR4w15 binding data (DRB1*0405 (DR4w15)): -0.0009
DR1 binding data (DRB1*0101 (DR1)): 0.0001
DR4w4 binding data (DRB1*0401 (DR4w4)): 0.0053
DR5w12 binding data (DRB1*1201 (DR5w12)): 0.0001
DR7 binding data (DRB1*0701 (DR7)): -0.0003
DR5w11 binding data (DRB1*1101 (DR5w11)): -0.0002
DR2w2β2 binding data (DRB5*0101 (DR2w2β2)): -0.0005
DR8w2 binding data (DRB1*0802 (DR8w2)): 0.0005

DLERTICASK
A*301 (binding data) (HLA-A*0301): 0.0001

AEKTNKGTG
DR3 binding information (DRB1*0301 (DR3); Malaria DR3b motif peptides): -0.0033

KILSVFFLA
A*0301 (binding information) (HLA-A*0301; [3]): 0.1400

YREEVCNDE
DR3 binding information (DRB1*0301 (DR3); [1]): -0.0033

ITINVEGRR
A*301 (binding data) (HLA-A*0301): 0.0002

NSRNRKNEEK
A*0301 (binding information) (HLA-A*0301; [2]): 0.0004

IYKELEDLI
DR3 binding information (DRB1*0301 (DR3); [1]): -0.0033

AWENVKNVI
DR3 binding information (DRB1*0301 (DR3); Malaria DR3b motif peptides): -0.0130

VNKEKEKFI
DR3 binding information (DRB1*0301 (DR3); [1]): -0.0033

LDNERKQSD
DR3 binding information (DRB1*0301 (DR3); Malaria DR3b motif peptides): -0.0130

CGKGIRSRKR
A*0301 (binding information) (HLA-A*0301; [5]): 0.0002

YDNAGINLY
DR4w15 binding data (DRB1*0405 (DR4w15)): -0.0009
DR1 binding data (DRB1*0101 (DR1)): 0.0003
DR4w4 binding data (DRB1*0401 (DR4w4)): -0.0009
DR5w12 binding data (DRB1*1201 (DR5w12)): 0.0001
DR7 binding data (DRB1*0701 (DR7)): -0.0003
DR5w11 binding data (DRB1*1101 (DR5w11)): -0.0002
DR2w2β2 binding data (DRB5*0101 (DR2w2β2)): -0.0005
DR8w2 binding data (DRB1*0802 (DR8w2)): -0.0003

DTKKKNLERKK
A*301 (binding data) (HLA-A*0301): 0.0001

SDASICNKEK
A*0301 (binding information) (HLA-A*0301; [5]): 0.0005

QSQDNNONRH (QSQDNNGNRH)
A*0301 (binding information) (HLA-A*0301; [5]): 0.0004

LYNELEMNY
DR3 binding information (DRB1*0301 (DR3); [1]): 0.0270

FDGDNEILQ
DR3 binding information (DRB1*0301 (DR3); [1]): 0.0640

LEQDRLAKE
DR3 binding information (DRB1*0301 (DR3); [1]): 0.0038

DTKIMERK
A*0301 (binding information) (HLA-A*0301; [3]): 0.0001

LHSDASKNK
DR3 binding information (DRB1*0301 (DR3); [1]): -0.0033

LVTVFLIFF
DR1 binding data (DRB1*0101 (DR1)): 0.0001
DR4w4 binding data (DRB1*0401 (DR4w4)): 0.0030
DR7 binding data (DRB1*0701 (DR7)): 0.0010

VEVNKRKSK
DR3 binding information (DRB1*0301 (DR3); Malaria DR3b motif peptides): 0.0880

LHEGCTSEL
DR4w15 binding data (DRB1*0405 (DR4w15)): -0.0014
DR1 binding data (DRB1*0101 (DR1)): 0.0001
DR4w4 binding data (DRB1*0401 (DR4w4)): -0.0009
DR3 binding data (DRB1*0301 (DR3); Table XIXb, DR3): -0.0041
DR5w12 binding data (DRB1*1201 (DR5w12)): 0.0001
DR7 binding data (DRB1*0701 (DR7)): -0.0003
DR5w11 binding data (DRB1*1101 (DR5w11)): -0.0002
DR2w2β2 binding data (DRB5*0101 (DR2w2β2)): -0.0005
DR8w2 binding data (DRB1*0802 (DR8w2)): -0.0003

QSKLEQERR
A*301 (binding data) (HLA-A*0301): 0.0002

LSEEKIKKG
DR3 binding information (DRB1*0301 (DR3); [1]): -0.0033

ALFFITFNIC
A*0301 (binding information) (HLA-A*0301; [3]): 1.1000

LEQERLAKE
DR3 binding information (DRB1*0301 (DR3); [1]): -0.0033

LLIFNINGK
A*0301 (binding information) (HLA-A*0301; [2]): 0.0260

VLNELNYDN
DR3 binding information (DRB1*0301 (DR3); [1]): -0.0033

LVGCHPSDOK (LVGCHPSDGK)
A*0301 (binding information) (HLA-A*0301; [5]): 0.0004

IEKTNRESI
DR3 binding information (DRB1*0301 (DR3); Malaria DR3b motif peptides): 0.1300
